Variants at the floor of the assay were thinned out.
Legend:
biotinyl-Phe-oxazolone = test: self-aminoacylation, catalytic enhancement (BFO) (fold over background); higher = more active; k-Seq, kA / k0A0; sequences stand for … in GGGAAUGGAUCCACAUCUACGAAUUC…UUCACUGCAGACUUGACGAAGCUG
Summary of the method: (§1)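 Mutagenized RNA pools with a 21-nt variable region (0.43 μM) were reacted with each biotinyl-aminoacyl-oxazolone at 2–1250 μM for 90 minutes at room temperature, in 50 μL HEPES/NaCl/KCl/MgCl2/CaCl2 buffer containing 5% acetonitrile at pH 6.9–7.0. RNA captured on streptavidin was quantified by triplicate qPCR and by Illumina sequencing. The fraction reacted for each sequence was fit to a pseudo-first-order model with bootstrapping, and catalytic enhancement is the median kA divided by the uncatalyzed rate, taken as the low-activity peak of a bimodal Gaussian fit.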

biotinyl-Ile-oxazolone = test: self-aminoacylation, catalytic enhancement (BIO) (fold over background); higher = more active; k-Seq, kA / k0A0; sequences stand for … in GGGAAUGGAUCCACAUCUACGAAUUC…UUCACUGCAGACUUGACGAAGCUG
Summary of the method: as §1

biotinyl-Met-oxazolone = test: self-aminoacylation, catalytic enhancement (BMO) (fold over background); higher = more active; k-Seq, kA / k0A0; sequences stand for … in GGGAAUGGAUCCACAUCUACGAAUUC…UUCACUGCAGACUUGACGAAGCUG
Summary of the method: as §1

biotinyl-Val-oxazolone = test: self-aminoacylation, catalytic enhancement (BVO) (fold over background); higher = more active; k-Seq, kA / k0A0; sequences stand for … in GGGAAUGGAUCCACAUCUACGAAUUC…UUCACUGCAGACUUGACGAAGCUG
Summary of the method: as §1

biotinyl-Leu-oxazolone = test: self-aminoacylation, catalytic enhancement (BLO) (fold over background); higher = more active; k-Seq, kA / k0A0; sequences stand for … in GGGAAUGGAUCCACAUCUACGAAUUC…UUCACUGCAGACUUGACGAAGCUG
Summary of the method: as §1

biotinyl-Trp-oxazolone = test: self-aminoacylation, catalytic enhancement (BWO) (fold over background); higher = more active; k-Seq, kA / k0A0; sequences stand for … in GGGAAUGGAUCCACAUCUACGAAUUC…UUCACUGCAGACUUGACGAAGCUG
Summary of the method: as §1

Row | Sequence | self-aminoacylation (biotinyl-Phe-oxazolone) | self-aminoacylation (biotinyl-Ile-oxazolone) | self-aminoacylation (biotinyl-Met-oxazolone) | self-aminoacylation (biotinyl-Val-oxazolone) | self-aminoacylation (biotinyl-Leu-oxazolone) | self-aminoacylation (biotinyl-Trp-oxazolone)
1 | CCACACCUCAAGCAGUCGGUC [Fam1B.1 aminoacylation ribozyme variant] | 0.725 | 1.34 | 1.02 | 1.6 | 1.47 | 1.02
2 | AAAUUGGCUAAUAGUCGCAAG [Fam3.1 aminoacylation ribozyme variant] | 2.72 | 2.32 | 1.84 | 2.05 | 2.05 | 3.11
3 | AUUGCCCUGGUCAUCCAGUGA [Fam2.1 aminoacylation ribozyme variant] | 44.4 | 3.7 | 6.42 | 4.02 | 7.38 | 7.66
4 | AAGUUUGCUAAUAGUCGUCAG [Fam3.1 aminoacylation ribozyme variant] | 2.16 | 0.795 | 0.638 | 0.905 | 0.715 | 1.26
5 | AAGUUUGCUAUUGGUCGCAAG [Fam3.1 aminoacylation ribozyme variant] | 1.46 | 0.787 | 0.756 | 0.76 | 1.05 | 0.66
6 | AAGUUUGAUAAUAGUAGCAAG [Fam3.1 aminoacylation ribozyme variant] | 0.835 | 0.724 | 0.756 | 0.691 | 0.535 | 0.667
7 | AUUACCCUAGUCAUCGAGUGC [Fam2.1 aminoacylation ribozyme variant] | 1.25 | 1.15 | 1.06 | 1.04 | 1.35 | 0.589
8 | CUACUUGAAACAAUCUGUCUG [Fam1A.1 aminoacylation ribozyme variant] | 0.472 | 0.655 | 0.747 | 0.657 | 0.636 | 0.496
9 | AUUCACCUAGGUCAUCCCGUG [Fam2.2 aminoacylation ribozyme variant] | 26.7 | 3.32 | 4.13 | 3.25 | 4.87 | 5.25
10 | CCAUACUUCAAGCAAUCGGAC [Fam1B.1 aminoacylation ribozyme variant] | 1.21 | 1.01 | 1.17 | 1.06 | 0.856 | 0.768
11 | UAGUUUGCUACUAGUCGCAAG [Fam3.1 aminoacylation ribozyme variant] | 1.57 | 1.42 | 1.24 | 1.1 | 1.23 | 1.23
12 | CUCUUUCAAACAAUCGGUCUG [Fam1A.1 aminoacylation ribozyme variant] | 14.2 | 0.972 | 1.13 | 0.908 | 1.21 | 9.95
13 | CUACUUCAAACAUUCGGUCUG [Fam1A.1 aminoacylation ribozyme variant] | 0.828 | 0.994 | 0.904 | 1.01 | 0.892 | 0.904
14 | AAGUUUGCUAAUCGUCGUAAG [Fam3.1 aminoacylation ribozyme variant] | 6.16 | 0.808 | 0.85 | 0.947 | 0.75 | 2.06
15 | AAGUUUGCUAAUAGGGGCAAG [Fam3.1 aminoacylation ribozyme variant] | 1.08 | 0.686 | 0.663 | 0.649 | 0.505 | 0.665
16 | AUUACCCGUGUCAUCGAGUGA [Fam2.1 aminoacylation ribozyme variant] | 38.3 | 4.4 | 8.54 | 4.8 | 8.6 | 10.7
17 | GUACUUCAAACAAUCGUUCUG [Fam1A.1 aminoacylation ribozyme variant] | 2.04 | 1.15 | 0.889 | 1.13 | 0.972 | 2.37
18 | AUUCACUUAGGUCAUGGGGUG [Fam2.2 aminoacylation ribozyme variant] | 46.2 | 3.61 | 5.58 | 3.31 | 7.09 | 5.74
19 | AUUCACCUAAGUCAUGGGGUG [Fam2.2 aminoacylation ribozyme variant] | 33.4 | 3.71 | 5.16 | 3.47 | 7.26 | 5.16
20 | AAGUUUGAUAACAGUCGCAAG [Fam3.1 aminoacylation ribozyme variant] | 0.983 | 0.929 | 0.877 | 0.798 | 0.548 | 0.569
21 | AGUACCCUGGUCAUCGAGCGA [Fam2.1 aminoacylation ribozyme variant] | 1.16 | 1.94 | 2.19 | 1.9 | 2.28 | 1.89
22 | AAGUUCGUUAAUAGUCGCAAG [Fam3.1 aminoacylation ribozyme variant] | 3.09 | 1.93 | 1.77 | 1.53 | 1.94 | 1.56
23 | ACACACCUAGGUCAUCGGGUG [Fam2.2 aminoacylation ribozyme variant] | 19 | 2.98 | 3.51 | 3.19 | 3.61 | 4.91
24 | CAACACUUCAAGCGAUCGGUC [Fam1B.1 aminoacylation ribozyme variant] | 1.94 | 1.27 | 1.29 | 1.25 | 1.55 | 1.81
25 | CCACCUUUCAAGCAAUCGGUC [Fam1B.1 aminoacylation ribozyme variant] | 2.62 | 1.44 | 1.4 | 1.72 | 1.35 | 1.97
26 | CUACUGUAAACAAUCGGUCUG [Fam1A.1 aminoacylation ribozyme variant] | 0.659 | 0.897 | 0.887 | 0.741 | 0.863 | 0.53

Reference: the supplement of paper PMC9233669
